According to publication PMC10786891, “Massively parallel profiling of RNA-targeting CRISPR-Cas13d”:
Residue numbers refer to the chain shown, from its start. Names may count otherwise.

T1: EsCas13d, nuclease-dead (Eubacterium siraeum, UniProt B0MS50, R295A;H300A;R849A;H854A)
T1 sequence: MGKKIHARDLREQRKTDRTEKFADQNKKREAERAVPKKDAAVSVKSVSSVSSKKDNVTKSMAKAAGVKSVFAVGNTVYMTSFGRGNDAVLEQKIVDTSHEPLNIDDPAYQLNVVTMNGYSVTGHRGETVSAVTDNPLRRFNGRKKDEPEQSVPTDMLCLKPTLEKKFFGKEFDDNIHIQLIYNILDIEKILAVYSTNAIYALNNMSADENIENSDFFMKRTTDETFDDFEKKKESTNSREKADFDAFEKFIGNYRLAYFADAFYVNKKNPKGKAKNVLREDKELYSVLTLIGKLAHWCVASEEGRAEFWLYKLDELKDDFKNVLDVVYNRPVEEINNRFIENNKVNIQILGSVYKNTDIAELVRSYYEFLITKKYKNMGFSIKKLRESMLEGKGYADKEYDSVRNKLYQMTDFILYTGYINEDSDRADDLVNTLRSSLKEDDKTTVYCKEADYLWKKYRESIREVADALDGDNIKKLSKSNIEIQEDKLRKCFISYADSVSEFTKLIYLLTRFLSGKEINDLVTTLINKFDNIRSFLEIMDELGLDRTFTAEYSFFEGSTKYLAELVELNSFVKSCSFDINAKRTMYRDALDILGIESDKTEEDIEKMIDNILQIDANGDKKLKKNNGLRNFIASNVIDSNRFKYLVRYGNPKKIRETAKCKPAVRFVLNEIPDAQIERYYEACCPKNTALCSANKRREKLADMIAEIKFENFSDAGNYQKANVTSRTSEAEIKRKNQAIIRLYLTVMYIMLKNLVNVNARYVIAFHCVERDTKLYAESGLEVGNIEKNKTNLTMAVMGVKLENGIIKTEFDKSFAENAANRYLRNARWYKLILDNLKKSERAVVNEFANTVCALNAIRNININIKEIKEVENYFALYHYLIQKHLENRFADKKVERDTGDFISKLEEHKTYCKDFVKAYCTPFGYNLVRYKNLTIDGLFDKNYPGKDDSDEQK

B1: target 1 insG 3' of 11,insC 3' of 5 (mixed)
RNA 1: CACCCGUGCAAAAAUGCAGGGGUCUAAAACUGAGCGGAUAACCUCUCUAUGG
RNA 2: GGGAAUGGAUCCACAUCUACGAAUUCGUACCAUAGAGAGGUGUAUCCGCCUCACCGAGAUCGGAAGAGCACACGU
B2: target 1 MT 5'PFS UAG 3'PFS CUU (mixed)
RNA 1: B1 RNA 1
RNA 2: GGGAAUGGAUCCACAUCUACGAAUUCUAGCCAUAGAGAGGUUAUCCGCUCACUUAGAUCGGAAGAGCACACGU
B3: target 1 MT 5'PFS GAG 3'PFS UUG (mixed)
RNA 1: B1 RNA 1
RNA 2: B2 RNA 2 with U27G, C52U, U54G
B4: target 1 MT 5'PFS CAG 3'PFS UCG (mixed)
RNA 1: B1 RNA 1
RNA 2: B2 RNA 2 with U27C, C52U, U53C, U54G
B5: target 1 insG 3' of 14 (mixed)
RNA 1: B1 RNA 1
RNA 2: GGGAAUGGAUCCACAUCUACGAAUUCGUACCAUAGAGAGGGUUAUCCGCUCACCGAGAUCGGAAGAGCACACGU
B6: target 1 MT 5'PFS AAC 3'PFS CUA (mixed)
RNA 1: B1 RNA 1
RNA 2: B2 RNA 2 with U27A, G29C, U54A
B7: target 1 MT 5'PFS AAC 3'PFS AUU (mixed)
RNA 1: B1 RNA 1
RNA 2: B2 RNA 2 with U27A, G29C, C52A
B8: target 1 MT 5'PFS GAG 3'PFS UUU (mixed)
RNA 1: B1 RNA 1
RNA 2: B2 RNA 2 with U27G, C52U
B9: target 1 MT 5'PFS CAG 3'PFS AUA (mixed)
RNA 1: B1 RNA 1
RNA 2: B2 RNA 2 with U27C, C52A, U54A
B10: target 1 MT 5'PFS GCG 3'PFS CGU (mixed)
RNA 1: B1 RNA 1
RNA 2: B2 RNA 2 with U27G, A28C, U53G
B11: target 1 MT 5'PFS CAG 3'PFS AUC (mixed)
RNA 1: B1 RNA 1
RNA 2: B2 RNA 2 with U27C, C52A, U54C
B12: target 1 MT 5'PFS GGC 3'PFS ACC (mixed)
RNA 1: B1 RNA 1
RNA 2: B2 RNA 2 with U27G, A28G, G29C, C52A, U53C, U54C
B13: target 1 MT 5'PFS ACG 3'PFS AGC (mixed)
RNA 1: B1 RNA 1
RNA 2: B2 RNA 2 with U27A, A28C, C52A, U53G, U54C
B14: target 1 MT 5'PFS GCG 3'PFS CGA (mixed)
RNA 1: B1 RNA 1
RNA 2: B2 RNA 2 with U27G, A28C, U53G, U54A
B15: target 1 MT 5'PFS CAG 3'PFS UCC (mixed)
RNA 1: B1 RNA 1
RNA 2: B2 RNA 2 with U27C, C52U, U53C, U54C
B16: target 1 MT 5'PFS CAG 3'PFS UCU (mixed)
RNA 1: B1 RNA 1
RNA 2: B2 RNA 2 with U27C, C52U, U53C
B17: target 1 MT 5'PFS AAA 3'PFS AUU (mixed)
RNA 1: B1 RNA 1
RNA 2: B2 RNA 2 with U27A, G29A, C52A
B18: target 1 MT 5'PFS GUG 3'PFS UAC (mixed)
RNA 1: B1 RNA 1
RNA 2: B2 RNA 2 with U27G, A28U, C52U, U53A, U54C
B19: target 1 MT 5'PFS GCG 3'PFS CGG (mixed)
RNA 1: B1 RNA 1
RNA 2: B2 RNA 2 with U27G, A28C, U53G, U54G
B20: target 1 MT 5'PFS GUG 3'PFS UAA (mixed)
RNA 1: B1 RNA 1
RNA 2: B2 RNA 2 with U27G, A28U, C52U, U53A, U54A
B21: target 1 MT 5'PFS ACA 3'PFS AAC (mixed)
RNA 1: B1 RNA 1
RNA 2: B2 RNA 2 with U27A, A28C, G29A, C52A, U53A, U54C
B22: target 1 MT 5'PFS CCC 3'PFS AGC (mixed)
RNA 1: B1 RNA 1
RNA 2: B2 RNA 2 with U27C, A28C, G29C, C52A, U53G, U54C
B23: target 1 MT 5'PFS CAG 3'PFS AAC (mixed)
RNA 1: B1 RNA 1
RNA 2: B2 RNA 2 with U27C, C52A, U53A, U54C
B24: target 1 MT 5'PFS AAA 3'PFS AUG (mixed)
RNA 1: B1 RNA 1
RNA 2: B2 RNA 2 with U27A, G29A, C52A, U54G
B25: target 1 MT 5'PFS GUG 3'PFS UAU (mixed)
RNA 1: B1 RNA 1
RNA 2: B2 RNA 2 with U27G, A28U, C52U, U53A
B26: target 1 C4G,A20U (mixed)
RNA 1: B1 RNA 1
RNA 2: B2 RNA 2 with U27G, A28U, G29A, A32U, C48G, U53C, U54G
B27: target 1 MT 5'PFS GCG 3'PFS CGC (mixed)
RNA 1: B1 RNA 1
RNA 2: B2 RNA 2 with U27G, A28C, U53G, U54C
B28: target 1 C2G,G5C (mixed)
RNA 1: B1 RNA 1
RNA 2: B2 RNA 2 with U27G, A28U, G29A, G47C, C50G, U53C, U54G
B29: target 1 MT 5'PFS GCA 3'PFS CGA (mixed)
RNA 1: B1 RNA 1
RNA 2: B2 RNA 2 with U27G, A28C, G29A, U53G, U54A
B30: target 1 MT 5'PFS GUG 3'PFS UAG (mixed)
RNA 1: B1 RNA 1
RNA 2: B2 RNA 2 with U27G, A28U, C52U, U53A, U54G
B31: target 1 C4U,A9G (mixed)
RNA 1: B1 RNA 1
RNA 2: B2 RNA 2 with U27G, A28U, G29A, A43G, C48U, U53C, U54G
B32: target 1 MT 5'PFS GAG 3'PFS CUG (mixed)
RNA 1: B1 RNA 1
RNA 2: B2 RNA 2 with U27G, U54G
B33: target 1 MT 5'PFS GAG 3'PFS CUA (mixed)
RNA 1: B1 RNA 1
RNA 2: B2 RNA 2 with U27G, U54A
B34: target 1 MT 5'PFS GCA 3'PFS CGG (mixed)
RNA 1: B1 RNA 1
RNA 2: B2 RNA 2 with U27G, A28C, G29A, U53G, U54G

Target: T1, EsCas13d, nuclease-dead
Test: crRNA (strand 1, pre-loaded); Mg2+; 40 mM Tris-HCl pH 7.5, 150 mM NaCl, 6 mM MgCl2, 1 mM DTT, 0.1% Tween-20, 0.2 mg/ml BSA; 25 C; 10 min per concentration, then washed
Details: tags: His6-TwinStrep-SUMO cleaved; N-terminal SNAP kept (SNAP-Surface 488); label: 3' end held by stalled T7 RNA polymerase

| Binder | Kd [nM] |
| --- | --- |
| B1 | 78 ± 21 |
| B2 | 28 ± 5.5 |
| B3 | 9.9 ± 1.85 |
| B4 | 9 ± 1.75 |
| B5 | 9.4 ± 0.33 |
| B6 | 39 ± 19.5 |
| B7 | ~21 |
| B8 | 23 ± 5.5 |
| B9 | 29 ± 13.5 |
| B10 | ~70 |
| B11 | ~17.5 |
| B12 | 24.3 ± 5.25 |
| B13 | ~31 |
| B14 | 49.5 ± 17 |
| B15 | 11.9 ± 5.25 |
| B16 | 19 ± 7 |
| B17 | 28 ± 9.5 |

| Binder | Kd [nM] |
| --- | --- |
| B18 | 19.9 ± 2.05 |
| B19 | 67.5 ± 27.5 |
| B20 | 14.8 ± 0.95 |
| B21 | 15.3 ± 4.85 |
| B22 | ~40 |
| B23 | 75 ± 36.5 |
| B24 | 28.5 ± 8 |
| B25 | 11.3 ± 0.8 |
| B26 | 17.5 ± 2 |
| B27 | ~80 |
| B28 | 14 ± 1.1 |
| B29 | 41 ± 11 |
| B30 | 16 ± 1.5 |
| B31 | 42 ± 8 |
| B32 | ~23.5 |
| B33 | 40 ± 15 |
| B34 | 25 ± 6.5 |
